These results are taken from the supplement of paper PMC7877785.

The nature of the data set: self-splicing fitness, log relative to wild type (ln ratio); higher = more splicing; Tetrahymena group I intron in knt gene, E. coli kanamycin selection, DiMSum; sequences stand for … in CUCUCU…GGAGGGAAAAGUUAUCAGGCAUGCACCUGGUAGCUAGUCUUUAAACCAAUAGAUUGCAUCGGUUUAAAAGGCAAGACCGUCAAAUUGCGGGAAAGGGGUCAACAGCCGUUCAGUACCAAGUCUCAGGGGAAACUUUGAGAUGGCCUUGCAAAGGGUAUGGUAAUAAGCUGACGGACAUGGUCCUAACCACGCAGCCAAGUCCUAAGUCAACAGAUCUUCUGUUGAUAUGGAUGCAGUUCACAGACUAAAUGUCGGUCGGGGAAGAUGUAUUCUUCUCAUAAGAUAUAGUCGGACCUCUCCUUAAUGGGAGCUAGCGGAUGAAGUGAUGCAACACUGGAGCCGCUGGGAACUAAUUUGUAUGCGAAAGUAUAUUGAUUAGUUUUGGAGUACUCGUGGUCG
The method in brief:
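Colonies from six replicate transformations of E. coli BL21(DE3) were pooled and amplicon-sequenced on an Illumina HiSeq 2500. The library placed an intron with all eight P1ex-region nucleotides randomised inside the knt kanamycin-resistance gene on pET-22b(+), and cells grew overnight at 37°C or 30°C on LB agar with or without 25 μg/mL kanamycin (plus 100 μg/mL carbenicillin, 50 μM IPTG, 0.2% rhamnose). Fitness is the DiMSum error-weighted combination of wild-type-normalised replicate fold changes, kanamycin versus none.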

± gives the uncertainty stated by the source.

Turning to AAAGAGCAAUAUUACGCGAA, the “self-splicing fitness (ln)” value reads like this: (30 °C) -2.83 ± 0.2; (37 °C) -1.46 ± 0.24. Take UGCUAGCAAUAUUACGUUCG: the “self-splicing fitness (ln)” value was -0.807 ± 0.065 (30 °C) and -0.115 ± 0.091 (37 °C).

In the case of UGAAAGCAAUAUUACGCAAG, the “self-splicing fitness (ln)” value is -2.4 ± 0.15 (30 °C) and -2 ± 0.2 (37 °C). On to ACAUAGCAAUAUUACGAACA, for which the “self-splicing fitness (ln)” value is 0.105 ± 0.14 (30 °C) and -1.05 ± 0.17 (37 °C). Turning to ACCUAGCAAUAUUACGGCAG, the “self-splicing fitness (ln)” value runs as follows: (30 °C) -3.99 ± 0.19; (37 °C) -1.16 ± 0.14. The like results for UGAAAGCAAUAUUACGCUAA were, in that order, -1 ± 0.12 and -0.805 ± 0.13.

Take AGAUAGCAAUAUUACGAUGC: the “self-splicing fitness (ln)” value was -2.02 ± 0.15 (30 °C) and -0.736 ± 0.16 (37 °C). The matching figures for GGGGAGCAAUAUUACGAUUU: -2.01 ± 0.16 and -0.868 ± 0.16. The matching figures for AUUGAGCAAUAUUACGCUGG: -2.76 ± 0.34 and -1.24 ± 0.25. On to GUAUAGCAAUAUUACGAAAC, for which the “self-splicing fitness (ln)” value (37 °C) is -1.02 ± 0.49. GCUCAGCAAUAUUACGCUGA: the “self-splicing fitness (ln)” value (30 °C) is -2.82 ± 0.35.

UGUAAGCAAUAUUACGAGAG: the “self-splicing fitness (ln)” value is -3.81 ± 0.23 (30 °C) and -1.87 ± 0.25 (37 °C). The matching figures for UUGAAGCAAUAUUACGAUGG: -0.452 ± 0.07 and 0.232 ± 0.1. The matching figures for CCAGAGCAAUAUUACGGUUG: -1.11 ± 0.089 and -1.04 ± 0.13. With UGAGAGCAAUAUUACGUUGA, the “self-splicing fitness (ln)” value (37 °C) is -2.55 ± 0.24. Consider AUGCAGCAAUAUUACGUGAC, for which the “self-splicing fitness (ln)” value (30 °C) is -3.3 ± 0.21 and the “self-splicing fitness (ln)” value (37 °C) was -2.08 ± 0.16. The like results for AAAUAGCAAUAUUACGGAUG were, in that order, -2.5 ± 0.16 and -0.984 ± 0.12. The like results for AGGUAGCAAUAUUACGAUCC were, in that order, -0.0773 ± 0.022 and 0.212 ± 0.039.

With GGAUAGCAAUAUUACGCAUA, the “self-splicing fitness (ln)” value is, setting by setting: (30 °C) -1.88 ± 0.45; (37 °C) -2.04 ± 0.39. The like results for AUCUAGCAAUAUUACGUGGA were, in that order, -2.71 ± 0.24 and -2.91 ± 0.26. For GCUAAGCAAUAUUACGUAAC, the “self-splicing fitness (ln)” value (30 °C) is -1.39 ± 0.11 and the “self-splicing fitness (ln)” value (37 °C) is -0.735 ± 0.14.

Regarding UCAGAGCAAUAUUACGGUGG, the “self-splicing fitness (ln)” value reads like this: (30 °C) -3.06 ± 0.089; (37 °C) -1.32 ± 0.084. Consider AAUAAGCAAUAUUACGAGUG, for which the “self-splicing fitness (ln)” value is, setting by setting: (30 °C) -1.05 ± 0.07; (37 °C) -0.56 ± 0.09. As for UAGCAGCAAUAUUACGCUAC, the “self-splicing fitness (ln)” value is, setting by setting: (30 °C) -2.76 ± 0.32; (37 °C) -2.13 ± 0.44.

On to GUCGAGCAAUAUUACGUAUU, for which the “self-splicing fitness (ln)” value reads like this: (30 °C) -1.52 ± 0.29; (37 °C) -0.948 ± 0.23. On to UUCGAGCAAUAUUACGAAUC, for which the “self-splicing fitness (ln)” value (37 °C) is -2.97 ± 0.4. As for GUUGAGCAAUAUUACGCUAG, the “self-splicing fitness (ln)” value (30 °C) is -3.01 ± 0.44. For the sequence UUCUAGCAAUAUUACGGACU, the “self-splicing fitness (ln)” value reads like this: (30 °C) -1.6 ± 0.17; (37 °C) -1.16 ± 0.19. The matching figures for GUAUAGCAAUAUUACGAGGU: -2.99 ± 0.26 and -0.619 ± 0.28. GUGUAGCAAUAUUACGAUUA: the “self-splicing fitness (ln)” value by setting is: (30 °C) -1.58 ± 0.27; (37 °C) 0.0491 ± 0.2. The matching figures for UCAUAGCAAUAUUACGCAAG: -1.94 ± 0.15 and -2.04 ± 0.2. The matching figures for UCGUAGCAAUAUUACGCGAA: -2.68 ± 0.23 and -0.932 ± 0.19.

Take GUACAGCAAUAUUACGGCCC: the “self-splicing fitness (ln)” value reads like this: (30 °C) -0.268 ± 0.088; (37 °C) -0.155 ± 0.11. As for GGCGAGCAAUAUUACGGUUC, the “self-splicing fitness (ln)” value was -1.46 ± 0.13 (30 °C) and -0.156 ± 0.13 (37 °C). GAUCAGCAAUAUUACGUAUA: the “self-splicing fitness (ln)” value is -0.819 ± 0.091 (30 °C) and -0.975 ± 0.088 (37 °C). The matching figures for CGUCAGCAAUAUUACGCCAU: -3.87 ± 0.29 and -2.81 ± 0.3. Regarding UCGGAGCAAUAUUACGCAGA, the “self-splicing fitness (ln)” value (37 °C) is -2.13 ± 0.23. With GGUCAGCAAUAUUACGGUUG, the “self-splicing fitness (ln)” value runs as follows: (30 °C) -1.07 ± 0.1; (37 °C) -0.43 ± 0.12. As to AAAGAGCAAUAUUACGCGGG, the “self-splicing fitness (ln)” value is, setting by setting: (30 °C) -4.16 ± 0.28; (37 °C) -3.54 ± 0.33. The like results for CAGUAGCAAUAUUACGAAAA were, in that order, -3.58 ± 0.47 and -1.8 ± 0.32. Regarding CCAAAGCAAUAUUACGUGCG, the “self-splicing fitness (ln)” value by setting is: (30 °C) -0.979 ± 0.065; (37 °C) -0.611 ± 0.081. For the sequence UCAGAGCAAUAUUACGACGC, where the note is “37 °C”, the “self-splicing fitness (ln)” value is -1.69 ± 0.4. For GGCAAGCAAUAUUACGGAAC, the “self-splicing fitness (ln)” value reads like this: (30 °C) -1.46 ± 0.13; (37 °C) 0.485 ± 0.21.

For the sequence CCAGAGCAAUAUUACGUACU, the “self-splicing fitness (ln)” value (37 °C) is -1.97 ± 0.18.

Regarding AUGAAGCAAUAUUACGUUGA, the “self-splicing fitness (ln)” value runs as follows: (30 °C) -2.39 ± 0.1; (37 °C) -0.85 ± 0.12. The matching figures for CAUCAGCAAUAUUACGACGG: -0.186 ± 0.085 and -0.0315 ± 0.1. In the case of AGAAAGCAAUAUUACGAUGG, the “self-splicing fitness (ln)” value was -2.28 ± 0.15 (30 °C) and -3.17 ± 0.35 (37 °C). The like results for AGCCAGCAAUAUUACGAAGU were, in that order, -4.11 ± 0.22 and -1.75 ± 0.12. The like results for GGACAGCAAUAUUACGACAG were, in that order, -3.31 ± 0.21 and -2.33 ± 0.27. In the case of CAGCAGCAAUAUUACGGCCC, the “self-splicing fitness (ln)” value was -0.505 ± 0.15 (30 °C) and -0.0529 ± 0.23 (37 °C). As for GAGAAGCAAUAUUACGAGCG, the “self-splicing fitness (ln)” value was -1.15 ± 0.16 (30 °C) and -0.106 ± 0.18 (37 °C). The like results for AUAAAGCAAUAUUACGAUCU were, in that order, 0.387 ± 0.11 and 0.308 ± 0.097.

As for CCCAAGCAAUAUUACGCUUC, the “self-splicing fitness (ln)” value reads like this: (30 °C) -2.84 ± 0.18; (37 °C) -3.15 ± 0.43.

For the sequence UAUCAGCAAUAUUACGGUAG, the “self-splicing fitness (ln)” value (30 °C) is -1.26 ± 0.083 and the “self-splicing fitness (ln)” value (37 °C) stood at 0.0233 ± 0.087. As for AGAAAGCAAUAUUACGUUGC, the “self-splicing fitness (ln)” value by setting is: (30 °C) -4 ± 0.13; (37 °C) -3.36 ± 0.15. As for UCGUAGCAAUAUUACGCCGG, the “self-splicing fitness (ln)” value is -0.692 ± 0.13 (30 °C) and -2.41 ± 0.28 (37 °C).

As for UGUCAGCAAUAUUACGCGCC, the “self-splicing fitness (ln)” value by setting is: (30 °C) -0.7 ± 0.18; (37 °C) -0.523 ± 0.23.

As to UCAUAGCAAUAUUACGAUUG, the “self-splicing fitness (ln)” value reads like this: (30 °C) -2.31 ± 0.13; (37 °C) -1.38 ± 0.13. The matching figures for GCACAGCAAUAUUACGGCCU: -1.66 ± 0.11 and -0.461 ± 0.12. With AAAAAGCAAUAUUACGAGGU, the “self-splicing fitness (ln)” value was -4.25 ± 0.29 (30 °C) and -3.5 ± 0.23 (37 °C).

Turning to UCAGAGCAAUAUUACGAUUA, the “self-splicing fitness (ln)” value (30 °C) is -1.18 ± 0.28. For the sequence CCGAAGCAAUAUUACGAGCG, the “self-splicing fitness (ln)” value runs as follows: (30 °C) -0.283 ± 0.087; (37 °C) 0.807 ± 0.1. The like results for UAGUAGCAAUAUUACGAGAG were, in that order, -3.43 ± 0.24 and -2.67 ± 0.18. The like results for GGUCAGCAAUAUUACGCUAA were, in that order, -1.1 ± 0.095 and 0.512 ± 0.13. The matching figures for CGAAAGCAAUAUUACGAAUA: -2.47 ± 0.29 and -2.14 ± 0.2. GCCAAGCAAUAUUACGUCGG: the “self-splicing fitness (ln)” value (30 °C) is -2.95 ± 0.18 and the “self-splicing fitness (ln)” value (37 °C) was -2.28 ± 0.24. As to AGGGAGCAAUAUUACGCUGC, the “self-splicing fitness (ln)” value (30 °C) was -3.96 ± 0.29 and the “self-splicing fitness (ln)” value (37 °C) was -2.35 ± 0.23.

CAUGAGCAAUAUUACGCUGU: the “self-splicing fitness (ln)” value is -3.14 ± 0.23 (30 °C) and -1.14 ± 0.23 (37 °C). Consider UUCCAGCAAUAUUACGUGUU, for which the “self-splicing fitness (ln)” value reads like this: (30 °C) -4.2 ± 0.25; (37 °C) -2.48 ± 0.21. As to CUUUAGCAAUAUUACGUCAA, the “self-splicing fitness (ln)” value is -2.48 ± 0.35 (30 °C) and -2.67 ± 0.38 (37 °C). The matching figures for AGUCAGCAAUAUUACGAACU: -0.853 ± 0.089 and 0.15 ± 0.11. Regarding GAUCAGCAAUAUUACGCGUA, the “self-splicing fitness (ln)” value reads like this: (30 °C) -0.39 ± 0.095; (37 °C) -0.283 ± 0.14.

On to GCUGAGCAAUAUUACGUCUC, for which, for the setting “37 °C”, the “self-splicing fitness (ln)” value was -1.16 ± 0.35. Regarding ACCUAGCAAUAUUACGCUCU, the “self-splicing fitness (ln)” value reads like this: (30 °C) -0.243 ± 0.096; (37 °C) -0.447 ± 0.098.

As for CCUAAGCAAUAUUACGUCAG, the “self-splicing fitness (ln)” value (30 °C) is -1.58 ± 0.12 and the “self-splicing fitness (ln)” value (37 °C) is -0.812 ± 0.12. The matching figures for UGAUAGCAAUAUUACGGUGG: -2.08 ± 0.15 and -1.53 ± 0.25.

On to UGCCAGCAAUAUUACGUAUA, for which the “self-splicing fitness (ln)” value was -1.92 ± 0.11 (30 °C) and -1.62 ± 0.12 (37 °C). The matching figures for GUCCAGCAAUAUUACGCGCC: -1.29 ± 0.11 and -0.848 ± 0.14.
